Test results: publication PMC5454376 (Nature Communications, 2017)
Where no end group is shown, it is not given here.

Tests used:
Settings in all cases: both partners purified
[1] = molecular target: T1, Full-length human Gαi3, untagged (NMR sample) (human, UniProt P08754 1-354); assay: NMR titration; 1H–15N TROSY and HNCO of 32 μM 2H,13C,15N-Gαi3 titrated with GIV peptide 1,671–1,696 (molar ratios 1:0 to 1:5); 30 °C; 10 mM HEPES pH 7.0, 10 mM MgCl2, 5 mM DTT, GDP; up to 3% DMSO
T1 construct: Uniformly 2H,13C,15N labelled for NMR; also called Gαi3-GDP; 2H,13C,15N-Gαi3; source: E. coli BL21 Rosetta, pET24d(+), purified (His-Trap, tag cleavage, GST-Trap, Superdex 200); not shown: His tag, N-terminal, cleaved
T1 sequence (P08754 whole entry): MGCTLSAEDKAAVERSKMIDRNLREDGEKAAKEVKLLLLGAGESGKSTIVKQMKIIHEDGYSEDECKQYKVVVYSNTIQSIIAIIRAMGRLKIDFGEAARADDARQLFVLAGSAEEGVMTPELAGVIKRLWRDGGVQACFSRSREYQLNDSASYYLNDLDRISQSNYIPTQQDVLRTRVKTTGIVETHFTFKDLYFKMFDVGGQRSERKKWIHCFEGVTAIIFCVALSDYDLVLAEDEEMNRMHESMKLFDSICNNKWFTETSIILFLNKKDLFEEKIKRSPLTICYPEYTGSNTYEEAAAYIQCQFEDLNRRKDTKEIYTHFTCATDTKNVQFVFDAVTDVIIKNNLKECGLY

Human His-Gαi3 S252A [2] = molecular target: T2, Human His-Gαi3 S252A (human, UniProt P08754 1-354, S252 mutated to A); assay: fluorescence polarisation; fluorescein-labelled peptide 0.025 μM, G protein 0–8 μM; room temperature; 50 mM Tris-HCl pH 7.4, 100 mM NaCl, 0.4% NP-40, 10 mM MgCl2, 5 mM EDTA, 2 mM DTT, 30 μM GDP; one site binding hyperbola
T2 construct: Gαi3, human, UniProt P08754, full length; also called S252 mutated to A; source: E. coli, pET24d(+), purified as uncleaved His-tagged protein (HisPur Cobalt Resin); not shown: His tag, N-terminal, kept
T2 sequence (P08754 whole entry S252A): as the sequence (P08754 whole entry) above, with S252A counted along it

Human His-Gαi3 WT [3] = molecular target: T3, Human His-Gαi3 WT (human, UniProt P08754 1-354); assay: as above
T3 construct: Gαi3, human, UniProt P08754, full length; same plasmid as for the NMR studies; also called His-tagged Gαi3; tagged protein; source: E. coli, pET24d(+), purified as uncleaved His-tagged protein (HisPur Cobalt Resin); not shown: His tag, N-terminal, kept
T3 sequence (P08754 whole entry): as the sequence (P08754 whole entry) above

[4] = molecular target: T1, Full-length human Gαi3, untagged (NMR …); assay: as above
Human His-Gαi3 N256A [5] = molecular target: T4, Human His-Gαi3 N256A (human, UniProt P08754 1-354, N256 mutated to A); assay: as above
T4 construct: Gαi3, human, UniProt P08754, full length; also called N256 mutated to A; source: E. coli, pET24d(+), purified as uncleaved His-tagged protein (HisPur Cobalt Resin); not shown: His tag, N-terminal, kept
T4 sequence (P08754 whole entry N256A): as the sequence (P08754 whole entry) above, with N256A counted along it

[6] = molecular target: T5, Human His-Gαi3 ΔC9 (lacking the last nine residues) (human, UniProt P08754 1-345); assay: as above
T5 construct: Gαi3, human, UniProt P08754, lacking the last nine residues; source: E. coli, pET24d(+), purified as uncleaved His-tagged protein (HisPur Cobalt Resin); not shown: His tag, N-terminal, kept
T5 sequence (P08754 1-345, stated change not applied): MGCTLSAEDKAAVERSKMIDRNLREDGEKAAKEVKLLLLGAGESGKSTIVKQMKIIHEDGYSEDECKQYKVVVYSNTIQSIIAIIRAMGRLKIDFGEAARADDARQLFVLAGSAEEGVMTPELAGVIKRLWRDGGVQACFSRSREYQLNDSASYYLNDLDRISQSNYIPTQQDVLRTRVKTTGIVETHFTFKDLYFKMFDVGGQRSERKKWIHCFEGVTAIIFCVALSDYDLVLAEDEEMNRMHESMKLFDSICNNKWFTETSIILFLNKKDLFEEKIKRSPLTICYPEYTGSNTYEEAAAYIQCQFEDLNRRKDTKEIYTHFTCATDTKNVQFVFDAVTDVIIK

Human His-Gαi3 S252A [7] = molecular target: T2, Human His-Gαi3 S252A; assay: pull-down; 10 μg GST-GIV or GST-DAPLE on glutathione agarose beads (~1.25 μM); His-Gαi3 WT or mutants ~1 μM in solution; 4 h, 4 °C; 50 mM Tris-HCl pH 7.4, 100 mM NaCl, 0.4% NP-40, 10 mM MgCl2, 5 mM EDTA, 2 mM DTT, 30 μM GDP; Coomassie blue
Human His-Gαi3 WT [8] = molecular target: T3, Human His-Gαi3 WT; assay: as above
Human His-Gαi3 N256A [9] = molecular target: T4, Human His-Gαi3 N256A; assay: as above
[10] = molecular target: T5, Human His-Gαi3 ΔC9 (lacking the last …); assay: as above
His-tagged rat Gαi3 = molecular target: T6, His-tagged rat Gαi3 (rat, UniProt P08753 1-354); assay: pull-down; as a1 but His-Gαi3 reloaded with GDP (Gαi3-[GDP]) and buffer supplemented with 100 μM GDP
T6 construct: Same protein in three nucleotide states (nucleotide-free, GDP, GDP/AlF4−); the states are told apart by the assays a1-a3; also called His-Gαi3; Gαi3-[GDP]; source: E. coli BL21(DE3), pET28b, purified (Superdex S75); nucleotide-depleted and reloaded or not with GDP or GDP/AlF4−
T6 sequence (P08753 whole entry): as the sequence (P08754 whole entry) above, with P121S, S165T, D193E, E261D, I319V counted along it

Human His-Gαi3 W211A = molecular target: T7, Human His-Gαi3 W211A (human, UniProt P08754 1-354, W211A); assay: fluorescence polarisation; fluorescein-labelled peptide 0.025 μM, G protein 0–8 μM; room temperature; 50 mM Tris-HCl pH 7.4, 100 mM NaCl, 0.4% NP-40, 10 mM MgCl2, 5 mM EDTA, 2 mM DTT, 30 μM GDP; one site binding hyperbola
T7 construct: Gαi3, human, UniProt P08754, full length; source: E. coli, pET24d(+), purified as uncleaved His-tagged protein (HisPur Cobalt Resin); not shown: His tag, N-terminal, kept
T7 sequence (P08754 whole entry W211A): as the sequence (P08754 whole entry) above, with W211A counted along it

[11] = molecular target: T1, Full-length human Gαi3, untagged (NMR …); assay: NMR titration; 1H–15N TROSY and HNCO of 100 μM 2H,13C,15N-Gαi3 free and with a twofold molar excess of His-GIV-CT; 30 °C; 10 mM HEPES pH 7.0, 10 mM MgCl2, 5 mM DTT, threefold molar excess of GDP

Measured: binding result

B1: GIV peptide, amino acids 1,671–1,696 (GIVpept) (peptide)
peptide: KTGSPGSEVVTLQQFLEESNKLTSVQ
notes: GIV (Girdin), human, residues 1,671–1,696; numbers on UniProt Q3V6T2-3; Made on p-methylbenzhydrylamine resin; also called GIV fragment 1,671–1,696; source: synthetic peptide
binds: [1]

B2: Fluorescein-labelled GIV peptide (residues 1,671–1,701) (peptide)
peptide: {5,6‑carboxyfluorescein}-KTGSPGSEVVTLQQFLEESNKLTSVQIKSSS
notes: numbers on UniProt Q3V6T2-3; also called GBA motif of GIV; GEF motif of GIV; source: synthetic peptide
binds: Human His-Gαi3 S252A [2] | Human His-Gαi3 WT [3] | [4] | Human His-Gαi3 N256A [5] | [6]

B3: GST-DAPLE (1,650–1,745) (domain or fragment, human, UniProt Q9P219 1650-1745, looked up)
chain: GTAPPYVGVRPCSASPSSEMVTLEEFLEESNRSSPTHDTPSCRDDLLSDYFRKASDPPAIGGQPGPPAKKEGAKMPTNFVAPTVKMAAPTSEGRPL
notes: DAPLE (dishevelled-associating protein with high frequency of leucines), human, residues 1,650–1,745, cloned from Kazusa's clone fh14721 (KIAA1509)
binds: Human His-Gαi3 S252A [7] | Human His-Gαi3 WT [8] | Human His-Gαi3 N256A [9] | [10]

B4: GST-GIV (residues 1,671–1,755, containing its GBA motif) (domain or fragment, human, UniProt Q3V6T2-3 1671-1755, looked up)
chain: KTGSPGSEVVTLQQFLEESNKLTSVQIKSSSQENLLDEVMKSLSVSSDFLGKDKPVSCGLARSVSGKTPGDFYDRRTTKPEFLRP
notes: Girdin), human, residues 1,671–1,755
binds: Human His-Gαi3 S252A [7] | Human His-Gαi3 WT [8] | Human His-Gαi3 N256A [9] | [10] | His-tagged rat Gαi3

B5: Fluorescein-labelled RGS12 GoLoco peptide (residues 1,185–1,221) (peptide)
peptide: {5,6‑carboxyfluorescein}-DEAEEFFELISKAQSNRADDQRGLLRKEDLVLPEFLR
notes: RGS12, GoLoco motif, residues 1,185–1,221; 'human' stands at the head of the list 'human GIV ..., DAPLE ... or RGS12'; read as applying to all three; also called GoLoco motif of RGS12; RGS12 GoLoco motif; source: synthetic peptide
binds: Human His-Gαi3 W211A | Human His-Gαi3 WT [3]

B6: His-tagged human GIV residues 1,660–1,870 (GIV-CT) (domain or fragment, UniProt Q3V6T2-3 1660-1870, looked up)
chain: SETLESRHHKIKTGSPGSEVVTLQQFLEESNKLTSVQIKSSSQENLLDEVMKSLSVSSDFLGKDKPVSCGLARSVSGKTPGDFYDRRTTKPEFLRPGPRKTEDTYFISSAGKPTPGTQGKIKLVKESSLSRQSKDSNPYATLPRASSVISTAEGTTRRTSIHDFLTKDSRLPISVDSPPAAADSNTTAASNVDKVQESRNSKSRSREQQSS
notes: MALDI mass consistent with the tagged fragment lacking the initial methionine; source: E. coli BL21(DE3), pET28b, purified (Co2+ and Ni2+ columns, Superdex 200); not shown: His tag, N-terminal, kept
binds: [11]
